Data on 15 molecules can be found in patent US20170189510A1.

The assay concerns the target HLA-A*24 (human). The assay is described as follows: UV-ligand exchange, anti-b2m ELISA. In general terms: In an ELISA, binding on a coated surface is turned into a signal by an enzyme label.
Regarding VYWDSAGAAHF [peptide SEQ ID No 202 …], the peptide exchange yield is greater than 75%.
In turn, TYELRYFQI [peptide SEQ ID No 204 …] had a peptide exchange yield greater than 75%.
IYATEAHVF [peptide SEQ ID No 201 …] gave a peptide exchange yield of 50 to 75%.
Regarding TYKDEGNDYF [peptide SEQ ID No 209 …], the peptide exchange yield was 50 to 75%.
Then YYKSTSSAF [peptide SEQ ID No 218 …], with 50 to 75%; and TFSVSSHLF [peptide SEQ ID No 222 …], with 50 to 75%.
Then YYGPSLFLL [peptide SEQ ID No 200 …], with 50 to 75%; and NYYEVHKELF [peptide SEQ ID No 270 …], with 50 to 75%.
Take QYLGQIQHI [peptide SEQ ID No 268 …]: the peptide exchange yield lay in the range of 50 to 75%.
In turn, VYQGHTALL [peptide SEQ ID No 277 …] registered a peptide exchange yield greater than 75%.
In turn, PYRLIFEKF [peptide SEQ ID No 281 …] showed a peptide exchange yield of 20 to 49%.
The molecule LYITEPKTI [peptide SEQ ID No 287 …] displayed a peptide exchange yield of 50 to 75%.
As to YFIDSTNLKTHF [peptide SEQ ID No 269 …], the peptide exchange yield lay in the range of 50 to 75%.
Molecule HYPPVQVLF [peptide SEQ ID No 285 …] returned a peptide exchange yield of 50 to 75%.
Take AYVVFVSTL [peptide SEQ ID No 207 …]: the peptide exchange yield lay within 20 to 49%.
